± gives the half width of the 95% confidence interval.
Tests used:
[1] = folding stability dG unfold (combined trypsin and chymotrypsin); higher = more stable
In short: (§1)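 How resistant each design was to proteolysis was captured as K50, inferred by Bayesian fitting of sequencing counts. Unfolding free energy was then derived relative to a sequence-predicted unfolded-state K50 and a shared folded-state K50, per protease or combined. Digestion used trypsin and chymotrypsin at 11 threefold-diluted concentrations plus a no-protease condition, on mini-proteins under 80 residues without cysteine in a PA-tagged cDNA display construct. Designs were kept only when AlphaFold2 dimer inter-PAE was above 15.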

[2] = folding stability dG unfold from chymotrypsin proteolysis; higher = more stable
In short: as §1

[3] = folding stability dG unfold from trypsin proteolysis; higher = more stable
In short: as §1

Sequence | folding stability dG unfold [1] [kcal/mol] | folding stability dG unfold [2] [kcal/mol] | folding stability dG unfold [3] [kcal/mol]
SAGGSAGGSAGGPLKEAVEAAVASGAPEAEYLLVTPEGELRVTVKVYPEEGKVEVEVSPLSAGGSAGGSAGG [r17_475_TrMRF] | 0.555 ± 0.037 | 0.0794 ± 0.063 | 0.903 ± 0.018
SAGGSAGGSAGGPLKLKVKLKLEFEVKDENGKTSKVELEVELEVELPEIVLDKNGKLLLSAGGSAGGSAGGS [r10_168_TrROS_Hall] | 2.95 ± 0.32 | 3.39 ± 0.26 | 2.42 ± 0.091
SAGGSAGGSAGGPMEPIELTFMIPHPNGHPIVAKTEIWRMKNGFFIKPEIYNPDGNPIPSAGGSAGGSAGGS [r10_1056_TrROS] | -0.207 ± 0.18 | -0.377 ± 0.3 | -0.153 ± 0.25
SAGGSAGGSAGGPNIKIKDVHEHPPEDGNPIVMFEIKAKDDDGEKVYIIITPDKIHIMPISAGGSAGGSAGG [r7_960_TrROS] | 0.927 ± 0.21 | 1.15 ± 0.21 | 1 ± 0.07
SAGGSAGGSAGGPNPDMKFEIVTIKVPPDEVPKSEPIEDPDGHNFFLHFDGNTYTIWRMDSAGGSAGGSAGG [r7_97_TrROS] | 0.933 ± 0.23 | 1.39 ± 0.42 | 0.987 ± 0.086
SAGGSAGGSAGGPPGAVERGYLVVRFRVYRPEPAEPVGELTVYVRVPPPEPEEDGSFRFHSAGGSAGGSAGG [r7_959_TrMRF] | 2.24 ± 0.086 | 2.39 ± 0.068 | 1.98 ± 0.025
SAGGSAGGSAGGPPLKVTEVETHKHPNGHRYVTMTLRPPNGGPVTIMFDPNNGKIQIMISAGGSAGGSAGGS [r10_1218_TrROS] | 2.94 ± 0.24 | 3.35 ± 0.19 | 2.19 ± 0.13
SAGGSAGGSAGGPPVLAESTFSFPDGVTVRLAFLPDGKAIAELTPPDGSKIEVEFDVDASAGGSAGGSAGGS [r10_1184_TrMRF] | 0.189 ± 0.23 | 0.203 ± 0.14 | -0.214 ± 0.11
SAGGSAGGSAGGPPYEVNIYIKFRPPDGKPPTFPIDVNVNDPEDAKDELEDNFPNMEIVSAGGSAGGSAGGS [r10_1248_TrROS] | 0.919 ± 0.23 | 0.996 ± 0.15 | 0.592 ± 0.051
SAGGSAGGSAGGPSPSTPVTVTVTFPETGETVTLEVTDLEELRERFPDRPVEITVSPGGSAGGSAGGSAGGS [r10_1004_JUSTAS] | 2.42 ± 0.06 | 2.11 ± 0.041 | 2.5 ± 0.064
SAGGSAGGSAGGPTIVLKVSPEELKALEKAGVEIEKIEKNEDGELYITLTPEALKKAGFESAGGSAGGSAGG [r7_587_TrROS_Hall] | 2.97 ± 0.11 | 2.91 ± 0.057 | 2.85 ± 0.13
SAGGSAGGSAGGPVRLLVLEVPVENVEEVVRRLEALGSVRPVRVERLPGDRYRVLVVSPLSAGGSAGGSAGG [r7_589_TrMRF] | 1.46 ± 0.056 | 1.54 ± 0.05 | 1.3 ± 0.046
SAGGSAGGSAGGPWITIPLPPGEEYKIENKGNGKEQEINPNDGSIVIPNIPPDNAKVERESAGGSAGGSAGG [r7_200_TrROS] | 0.232 ± 0.14 | -0.177 ± 0.24 | 0.179 ± 0.041
SAGGSAGGSAGGPWYVRIEYTPPNGNKETFIIPSPEEIDEWAEPFGVPVKIEPIPPGDPISAGGSAGGSAGG [r7_456_TrROS] | 0.736 ± 0.091 | 0.604 ± 0.1 | 0.801 ± 0.02
SAGGSAGGSAGGPYEKAVEAAKALGSEDKPITIKLPNGTTVTLKPSELPSLPYEDPIVLLSAGGSAGGSAGG [r7_863_JUSTAS] | 0.353 ± 0.17 | 0.259 ± 0.18 | 0.367 ± 0.093
SAGGSAGGSAGGQLKLKLKVKVTTRVRDPATGKTYTVTEEVEVTVELEFPPPPLPPGFKSAGGSAGGSAGGS [r10_1026_TrROS_Hall] | 3.64 ± 0.21 | 4.2 ± 0.17 | 2.7 ± 0.22

Sequence | folding stability dG unfold [1] [kcal/mol] | folding stability dG unfold [2] [kcal/mol] | folding stability dG unfold [3] [kcal/mol]
SAGGSAGGSAGGSAELLEVLEVTKTGSGYTVKVLERSPELGPSVRTESFPADDTSVLLLSAGGSAGGSAGGS [r4_253_JUSTAS] | -0.0527 ± 0.1 | -0.384 ± 0.22 | -0.00295 ± 0.088
SAGGSAGGSAGGSAMTLLSEEELPDGSRRVLMRFPDGTRMELTVHPDGSVEERVTPPAASAGGSAGGSAGGS [r4_483_JUSTAS] | 2.72 ± 0.086 | 2.904 ± 0.021 | 2.28 ± 0.065
SAGGSAGGSAGGSDDPDGKPKPQIPPIKVEPIPIKDPNGWSIEIYYFPWNGMLIISFYNSAGGSAGGSAGGS [r4_305_TrROS] | 4.26 ± 0.2 | 4.34 ± 0.12 | 3.3 ± 0.22
SAGGSAGGSAGGSDGALIFIIHIKMEMELEPNPDGPPKWDMDWDIEPTWIQIDDPEDFKSAGGSAGGSAGGS [r4_450_TrROS] | 2.19 ± 0.21 | 2.48 ± 0.15 | 1.59 ± 0.13
SAGGSAGGSAGGSDKDPDKMKPKPVFEMEIVTYEWEKDGDGDWEPLSVEVQRIRVYAMDSAGGSAGGSAGGS [r4_288_TrROS] | 4.19 ± 0.19 | 4.51 ± 0.23 | 3.13 ± 0.14
SAGGSAGGSAGGSGDPNNPVTLLVLDVPSPEPAGTVYYFPDGYVAVNFPSINRTLVFYGSAGGSAGGSAGGS [r4_78_TrMRF] | 1.2 ± 0.17 | 1.42 ± 0.15 | 0.766 ± 0.036
SAGGSAGGSAGGSGLSFEIVEEREELLPDGRPRRRIFATLPGGRRLVIDDDGRITIDPDSAGGSAGGSAGGS [r4_111_TrMRF] | 0.897 ± 0.25 | 0.968 ± 0.15 | 0.45 ± 0.33
SAGGSAGGSAGGSGMVNLPEPIKVTKEEPLPDGSVRYTIEYPDSTITVFKYPDGIKIESSAGGSAGGSAGGS [r4_280_JUSTAS] | 0.393 ± 0.1 | 0.29 ± 0.24 | 0.35 ± 0.049
SAGGSAGGSAGGSGPPKLRLLRRVEVVYDGLVLPPNFPLPPSAPPNLKVFVSLVTLPEGSAGGSAGGSAGGS [r4_436_TrMRF] | 2.35 ± 0.43 | 1.83 ± 0.25 | 3.11 ± 0.091
SAGGSAGGSAGGSGSKEPKYYYRVVVEDDGNPVVRTYAPDEPLPAPANLKVFPFLADEESAGGSAGGSAGGS [r4_107_TrMRF] | 0.452 ± 0.25 | 0.857 ± 0.19 | -0.421 ± 0.81
SAGGSAGGSAGGSGSSVLVKTTTTLSVAPGATITLPDGTVYTVPAGVPVTVTTWVLVETSAGGSAGGSAGGS [r4_232_JUSTAS] | 3.38 ± 0.13 | 4.05 ± 0.092 | 2.31 ± 0.14
SAGGSAGGSAGGSIEIEITVELEDGYYLRISARFELNEDGSLKLEIKIELIKIEPGQELSAGGSAGGSAGGS [r10_241_TrROS_Hall] | 3.18 ± 0.32 | 2.27 ± 0.1 | 3.52 ± 0.48
SAGGSAGGSAGGSIEIIVRTPEMAKQMAKRIQKILADQGNPPPLKIEIHVIPPDDLPPWSAGGSAGGSAGGS [r4_472_TrROS] | 0.388 ± 0.15 | 0.571 ± 0.092 | -0.0989 ± 0.26
SAGGSAGGSAGGSILLITTHPKDAEKAAKEIEKILAELDIPPDAKIEVYVVPKEYLPDESAGGSAGGSAGGS [r4_472_TrMRF] | 0.329 ± 0.14 | 0.176 ± 0.17 | 0.323 ± 0.035
SAGGSAGGSAGGSIPPSDVTTEVDPNTPLTTVTYPSGVVVTETFPPDGTSTTTVDTAAGSAGGSAGGSAGGS [r10_170_JUSTAS] | 1.56 ± 0.039 | 1.23 ± 0.028 | 2.01 ± 0.038

From the supplement of paper PMC12764529
